{"source": "paper PMC9713302", "about": "“Simultaneous solving high-resolution structures of various enzymes from human kidney microsomes” (Life Science Alliance, 2022)", "proteins": {"B1": {"name": "betaine-homocysteine methyltransferase (BHMT) (enzyme, human (endogenous in kidney microsomes), UniProt Q93088 1-406, looked up)", "chain": "MPPVGGKKAKKGILERLNAGEIVIGDGGFVFALEKRGYVKAGPWTPEAAVEHPEAVRQLHREFLRAGSNVMQTFTFYASEDKLENRGNYVLEKISGQEVNEAACDIARQVADEGDALVAGGVSQTPSYLSCKSETEVKKVFLQQLEVFMKKNVDFLIAEYFEHVEEAVWAVETLIASGKPVAATMCIGPEGDLHGVPPGECAVRLVKAGASIIGVNCHFDPTISLKTVKLMKEGLEAARLKAHLMSQPLAYHTPDCNKQGFIDLPEFPFGLEPRVATRWDIQKYAREAYNLGVRYIGGCCGFEPYHIRAIAEELAPERGFLPPASEKHGSWGSGLDMHTKPWVRARARKEYWENLRIASGRPYNPSMSKPDGWGVTKGTAELMQQKEATTEQQLKELFEKQKFKSQ", "notes": "human BHMT, endogenous in kidney microsomes; Zn2+-free and ligand-free in the structure; also called betaine-homocysteine S-methyltransferase; source: endogenous, human kidney microsomes (bought: SEKISUI XenoTech), lysate enriched by size exclusion chromatography"}}, "biological_target": "the molecule itself", "test": "cryo-EM structure; single-particle cryo-EM with Build and Retrieve (BaR) on the 100-200 kD SEC peak of raw human kidney microsome lysate; 20 mM Tris-HCl pH 7.5, 100 mM NaCl; 0.6 mg/ml", "data": [{"protein": "B1", "values": [{"measurement": "stoichiometry N", "result": 4}]}]}
